Values of other authors, collected in article PMC2586657.

Target: alpha-factor (Saccharomyces cerevisiae) (UniProt P01149)

In the case of “alpha-factor receptor (from UniProt D6VTK4)”, the Kd is listed as 5 nM.
